Results: patent US20140087995A1 (published 2014)
Numbered stars: 1 amine (or outer) side, 2 acyl side, 3 side chain; on linkers, the order of the positions; unused ones are H or OH. Bridge positions count the residues as written; N and C are the ends. Side chains are listed from the residue outwards. Ends that are not written are not given here. * marks the point of attachment. C20 diacid = O=C(O)CCCCCCCCCCCCCCCCCCC(=O)*; γGlu = O=C(O)[C@H](CCC(=O)[*:2])N[*:1]

T1: human calcitonin receptor (human, UniProt P30988 25-474)
T1 construct: whole, on cells; Used as cell membranes; also called hCTR; hCT
T1 sequence (looked up): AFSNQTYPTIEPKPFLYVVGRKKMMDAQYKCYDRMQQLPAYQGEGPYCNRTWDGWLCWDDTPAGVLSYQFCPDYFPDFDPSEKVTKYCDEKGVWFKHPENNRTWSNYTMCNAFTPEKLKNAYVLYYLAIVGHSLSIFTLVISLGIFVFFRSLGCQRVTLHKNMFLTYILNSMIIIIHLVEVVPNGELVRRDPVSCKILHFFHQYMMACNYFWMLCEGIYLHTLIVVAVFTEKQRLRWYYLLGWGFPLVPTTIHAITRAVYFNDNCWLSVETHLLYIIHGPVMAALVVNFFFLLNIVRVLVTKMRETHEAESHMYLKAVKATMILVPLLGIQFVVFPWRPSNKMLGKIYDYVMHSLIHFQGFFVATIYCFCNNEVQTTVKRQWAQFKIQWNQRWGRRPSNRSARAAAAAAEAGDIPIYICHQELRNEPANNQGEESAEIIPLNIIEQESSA


Columns and labels:
[1] = target: T1, human calcitonin receptor; test: SPA competition on BHK cell membranes, 125I-calcitonin as radioligand (Assay VII)
In short: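 BHK hCTR membranes 35 ng/μL + SPA beads 0.05 mg/well; buffer 50 mM Hepes pH 7.4, 1 mM CaCl2, 5 mM MgCl₂, 0.1% OA, 0.02% Tween20. 120 min, 25° C., shaking. Scintillation count; IC50 by one-site binding competition.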

[2] = target: T1, human calcitonin receptor; test: ratio of hCTR IC50 to hAmylin-R IC50 (reference: human amylin receptor)
In short: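 Membranes (35 ng/μL final) + SPA beads, 50 mM Hepes pH 7.4 buffer with 1 mM CaCl2, 5 mM MgCl₂, 0.1% OA, 0.02% Tween20; 120 min, 25° C, shaking; centrifuged, counted; IC₅₀ by one-site binding competition.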

IC50 [1] [nM] | Ratio hCT/hAmylin binding [2] | Binder
10.3 | 60.8 | K([γGlu-C20 diacid])CNTATCATQRLAHFLRHSSPNFGAIPSSTNVGSNTY-NH2 (disulfide 2-7; N-terminus assumed; SMILES CC[C@H](C)[C@H](NC(=O)[C@H](C)NC(=O)CNC(=O)[C@H](Cc1ccccc1)NC(=O)[C@H](CC(N)=O)NC(=O)[C@@H]1CCCN1C(=O)[C@H](CO)NC(=O)[C@H](CO)NC(=O)[C@H](Cc1c[nH]cn1)NC(=O)[C@H](CCCNC(=N)N)NC(=O)[C@H](CC(C)C)NC(=O)[C@H](Cc1ccccc1)NC(=O)[C@H](Cc1c[nH]cn1)NC(=O)[C@H](C)NC(=O)[C@H](CC(C)C)NC(=O)[C@H](CCCNC(=N)N)NC(=O)[C@H](CCC(N)=O)NC(=O)[C@@H](NC(=O)[C@H](C)NC(=O)[C@@H]1CSSC[C@H](NC(=O)[C@@H](N)CCCCNC(=O)CC[C@H](NC(=O)CCCCCCCCCCCCCCCCCCC(=O)O)C(=O)O)C(=O)N[C@@H](CC(N)=O)C(=O)N[C@@H]([C@@H](C)O)C(=O)N[C@@H](C)C(=O)N[C@@H]([C@@H](C)O)C(=O)N1)[C@@H](C)O)C(=O)N1CCC[C@H]1C(=O)N[C@@H](CO)C(=O)N[C@@H](CO)C(=O)N[C@H](C(=O)N[C@@H](CC(N)=O)C(=O)N[C@H](C(=O)NCC(=O)N[C@@H](CO)C(=O)N[C@@H](CC(N)=O)C(=O)N[C@H](C(=O)N[C@@H](Cc1ccc(O)cc1)C(N)=O)[C@@H](C)O)C(C)C)[C@@H](C)O, also called compound 70) [N^ε1-[(4S)-4-carboxy-4-(19-carboxynonadecanoylamino)butanoyl]-[His14,Arg17,Pro21,Pro27]-h-amylin]
14.1 | 14.7 | K([γGlu-γGlu-C20 diacid])CNTATCATQRLAEFLRHSSPNFGAIPSSTNVGRETY-NH2 (disulfide 2-7; N-terminus assumed; SMILES CC[C@H](C)[C@H](NC(=O)[C@H](C)NC(=O)CNC(=O)[C@H](Cc1ccccc1)NC(=O)[C@H](CC(N)=O)NC(=O)[C@@H]1CCCN1C(=O)[C@H](CO)NC(=O)[C@H](CO)NC(=O)[C@H](Cc1c[nH]cn1)NC(=O)[C@H](CCCNC(=N)N)NC(=O)[C@H](CC(C)C)NC(=O)[C@H](Cc1ccccc1)NC(=O)[C@H](CCC(=O)O)NC(=O)[C@H](C)NC(=O)[C@H](CC(C)C)NC(=O)[C@H](CCCNC(=N)N)NC(=O)[C@H](CCC(N)=O)NC(=O)[C@@H](NC(=O)[C@H](C)NC(=O)[C@@H]1CSSC[C@H](NC(=O)[C@@H](N)CCCCNC(=O)CC[C@H](NC(=O)CC[C@H](NC(=O)CCCCCCCCCCCCCCCCCCC(=O)O)C(=O)O)C(=O)O)C(=O)N[C@@H](CC(N)=O)C(=O)N[C@@H]([C@@H](C)O)C(=O)N[C@@H](C)C(=O)N[C@@H]([C@@H](C)O)C(=O)N1)[C@@H](C)O)C(=O)N1CCC[C@H]1C(=O)N[C@@H](CO)C(=O)N[C@@H](CO)C(=O)N[C@H](C(=O)N[C@@H](CC(N)=O)C(=O)N[C@H](C(=O)NCC(=O)N[C@@H](CCCNC(=N)N)C(=O)N[C@@H](CCC(=O)O)C(=O)N[C@H](C(=O)N[C@@H](Cc1ccc(O)cc1)C(N)=O)[C@@H](C)O)C(C)C)[C@@H](C)O)
22.5 | 35.6 | K([γGlu-γGlu-C20 diacid])CNTATCATQRLAEFLRHSSPNFGAIPSSTNVGHNTY-NH2 (disulfide 2-7; N-terminus assumed; SMILES CC[C@H](C)[C@H](NC(=O)[C@H](C)NC(=O)CNC(=O)[C@H](Cc1ccccc1)NC(=O)[C@H](CC(N)=O)NC(=O)[C@@H]1CCCN1C(=O)[C@H](CO)NC(=O)[C@H](CO)NC(=O)[C@H](Cc1c[nH]cn1)NC(=O)[C@H](CCCNC(=N)N)NC(=O)[C@H](CC(C)C)NC(=O)[C@H](Cc1ccccc1)NC(=O)[C@H](CCC(=O)O)NC(=O)[C@H](C)NC(=O)[C@H](CC(C)C)NC(=O)[C@H](CCCNC(=N)N)NC(=O)[C@H](CCC(N)=O)NC(=O)[C@@H](NC(=O)[C@H](C)NC(=O)[C@@H]1CSSC[C@H](NC(=O)[C@@H](N)CCCCNC(=O)CC[C@H](NC(=O)CC[C@H](NC(=O)CCCCCCCCCCCCCCCCCCC(=O)O)C(=O)O)C(=O)O)C(=O)N[C@@H](CC(N)=O)C(=O)N[C@@H]([C@@H](C)O)C(=O)N[C@@H](C)C(=O)N[C@@H]([C@@H](C)O)C(=O)N1)[C@@H](C)O)C(=O)N1CCC[C@H]1C(=O)N[C@@H](CO)C(=O)N[C@@H](CO)C(=O)N[C@H](C(=O)N[C@@H](CC(N)=O)C(=O)N[C@H](C(=O)NCC(=O)N[C@@H](Cc1c[nH]cn1)C(=O)N[C@@H](CC(N)=O)C(=O)N[C@H](C(=O)N[C@@H](Cc1ccc(O)cc1)C(N)=O)[C@@H](C)O)C(C)C)[C@@H](C)O, also called compound 87)
15.2 | 29.1 | K([γGlu-γGlu-C20 diacid])CNTATCATQRLAEFLRHSSPNFGAIPSSTNVGHETY-NH2 (disulfide 2-7; N-terminus assumed; SMILES CC[C@H](C)[C@H](NC(=O)[C@H](C)NC(=O)CNC(=O)[C@H](Cc1ccccc1)NC(=O)[C@H](CC(N)=O)NC(=O)[C@@H]1CCCN1C(=O)[C@H](CO)NC(=O)[C@H](CO)NC(=O)[C@H](Cc1c[nH]cn1)NC(=O)[C@H](CCCNC(=N)N)NC(=O)[C@H](CC(C)C)NC(=O)[C@H](Cc1ccccc1)NC(=O)[C@H](CCC(=O)O)NC(=O)[C@H](C)NC(=O)[C@H](CC(C)C)NC(=O)[C@H](CCCNC(=N)N)NC(=O)[C@H](CCC(N)=O)NC(=O)[C@@H](NC(=O)[C@H](C)NC(=O)[C@@H]1CSSC[C@H](NC(=O)[C@@H](N)CCCCNC(=O)CC[C@H](NC(=O)CC[C@H](NC(=O)CCCCCCCCCCCCCCCCCCC(=O)O)C(=O)O)C(=O)O)C(=O)N[C@@H](CC(N)=O)C(=O)N[C@@H]([C@@H](C)O)C(=O)N[C@@H](C)C(=O)N[C@@H]([C@@H](C)O)C(=O)N1)[C@@H](C)O)C(=O)N1CCC[C@H]1C(=O)N[C@@H](CO)C(=O)N[C@@H](CO)C(=O)N[C@H](C(=O)N[C@@H](CC(N)=O)C(=O)N[C@H](C(=O)NCC(=O)N[C@@H](Cc1c[nH]cn1)C(=O)N[C@@H](CCC(=O)O)C(=O)N[C@H](C(=O)N[C@@H](Cc1ccc(O)cc1)C(N)=O)[C@@H](C)O)C(C)C)[C@@H](C)O)
34.9 | 46.5 | K([γGlu-γGlu-C20 diacid])CNTATCATQRLAEFLRHSSPNFGAIPSSTNVGRNTY-NH2 (disulfide 2-7; N-terminus assumed; SMILES CC[C@H](C)[C@H](NC(=O)[C@H](C)NC(=O)CNC(=O)[C@H](Cc1ccccc1)NC(=O)[C@H](CC(N)=O)NC(=O)[C@@H]1CCCN1C(=O)[C@H](CO)NC(=O)[C@H](CO)NC(=O)[C@H](Cc1c[nH]cn1)NC(=O)[C@H](CCCNC(=N)N)NC(=O)[C@H](CC(C)C)NC(=O)[C@H](Cc1ccccc1)NC(=O)[C@H](CCC(=O)O)NC(=O)[C@H](C)NC(=O)[C@H](CC(C)C)NC(=O)[C@H](CCCNC(=N)N)NC(=O)[C@H](CCC(N)=O)NC(=O)[C@@H](NC(=O)[C@H](C)NC(=O)[C@@H]1CSSC[C@H](NC(=O)[C@@H](N)CCCCNC(=O)CC[C@H](NC(=O)CC[C@H](NC(=O)CCCCCCCCCCCCCCCCCCC(=O)O)C(=O)O)C(=O)O)C(=O)N[C@@H](CC(N)=O)C(=O)N[C@@H]([C@@H](C)O)C(=O)N[C@@H](C)C(=O)N[C@@H]([C@@H](C)O)C(=O)N1)[C@@H](C)O)C(=O)N1CCC[C@H]1C(=O)N[C@@H](CO)C(=O)N[C@@H](CO)C(=O)N[C@H](C(=O)N[C@@H](CC(N)=O)C(=O)N[C@H](C(=O)NCC(=O)N[C@@H](CCCNC(=N)N)C(=O)N[C@@H](CC(N)=O)C(=O)N[C@H](C(=O)N[C@@H](Cc1ccc(O)cc1)C(N)=O)[C@@H](C)O)C(C)C)[C@@H](C)O, also called compound 88)
17.5 | 53.6 | K([γGlu-γGlu-C20 diacid])CNTATCATQRLAEFLRHSSPNFGAIPSSTNVGPRTY-NH2 (disulfide 2-7; N-terminus assumed; SMILES CC[C@H](C)[C@H](NC(=O)[C@H](C)NC(=O)CNC(=O)[C@H](Cc1ccccc1)NC(=O)[C@H](CC(N)=O)NC(=O)[C@@H]1CCCN1C(=O)[C@H](CO)NC(=O)[C@H](CO)NC(=O)[C@H](Cc1c[nH]cn1)NC(=O)[C@H](CCCNC(=N)N)NC(=O)[C@H](CC(C)C)NC(=O)[C@H](Cc1ccccc1)NC(=O)[C@H](CCC(=O)O)NC(=O)[C@H](C)NC(=O)[C@H](CC(C)C)NC(=O)[C@H](CCCNC(=N)N)NC(=O)[C@H](CCC(N)=O)NC(=O)[C@@H](NC(=O)[C@H](C)NC(=O)[C@@H]1CSSC[C@H](NC(=O)[C@@H](N)CCCCNC(=O)CC[C@H](NC(=O)CC[C@H](NC(=O)CCCCCCCCCCCCCCCCCCC(=O)O)C(=O)O)C(=O)O)C(=O)N[C@@H](CC(N)=O)C(=O)N[C@@H]([C@@H](C)O)C(=O)N[C@@H](C)C(=O)N[C@@H]([C@@H](C)O)C(=O)N1)[C@@H](C)O)C(=O)N1CCC[C@H]1C(=O)N[C@@H](CO)C(=O)N[C@@H](CO)C(=O)N[C@H](C(=O)N[C@@H](CC(N)=O)C(=O)N[C@H](C(=O)NCC(=O)N1CCC[C@H]1C(=O)N[C@@H](CCCNC(=N)N)C(=O)N[C@H](C(=O)N[C@@H](Cc1ccc(O)cc1)C(N)=O)[C@@H](C)O)C(C)C)[C@@H](C)O, also called compound 110)
